{"source": "patent US9657110B2", "about": "“Polypeptides and use thereof” (ASTON UNIVERSITY, priority 2011, dated 2017)", "molecules": {"B1": {"name": "D94A, D97A: TG2 fibronectin binding site mutant (protein, UniProt P21980 2-687, looked up, variant D94A D97A)", "Protein-glutamine …": "AEELVLERCDLELETNGRDHHTADLCREKLVVRRGQPFWLTLHFEGRNYEASVDSLTFSVVTGPAPSQEAGTKARFPLRDAVEEGDWTATVVAQQACTLSLQLTTPANAPIGLYRLSLEASTGYQGSSFVLGHFILLFNAWCPADAVYLDSEEERQEYVLTQQGFIYQGSAKFIKNIPWNFGQFEDGILDICLILLDVNPKFLKNAGRDCSRRSSPVYVGRVVSGMVNCNDDQGVLLGRWDNNYGDGVSPMSWIGSVDILRRWKNHGCQRVKYGQCWVFAAVACTVLRCLGIPTRVVTNYNSAHDQNSNLLIEYFRNEFGEIQGDKSEMIWNFHCWVESWMTRPDLQPGYEGWQALDPTPQEKSEGTYCCGPVPVRAIKEGDLSTKYDAPFVFAEVNADVVDWIQQDDGSVHKSINRSLIVGLKISTKSVGRDEREDITHTYKYPEGSSEEREAFTRANHLNKLAEKEETGMAMRIRVGQSMNMGSDFDVFAHITNNTAEEYVCRLLLCARTVSYNGILGPECGTKYLLNLNLEPFSEKSVPLCILYEKYRDCLTESNLIKVRALLVEPVINSYLLAERDLYLENPEIKIRILGEPKQKRKLVAEVSLQNPLPVALEGCTFTVEGAGLTEEQKTVEIPDPVEAGEEVKVRMDLLPLHMGLHKLVVNFESDKLKAVKGFRNVIIGPA"}}, "key": {"[1]": {"system": "Human osteoblasts (HOB) cells", "assay": "Cell attachment on wells coated with BSA-conjugated extended P1 peptide, BSA or FN", "type": "cell-based", "conditions": "soluble peptide 100 μg/ml, compared to RAD control peptide", "protocol": "96-Well ELISA plates were coated with 1 μg/ml of bovine serum albumin (BSA) conjugated peptide (“Extended P1”: […]c; SEQ ID NO:29) conjugated through its C-terminal cysteine via Beta-maleimidopropionic acid N-hydroxysuccinimide ester (MPS). Peptides were dissolved in NaHCO3/Na2CO3 coating buffer, pH 9.6 and plates coated at 4° C. for overnight. Wells coated with 1 μg/ml BSA NaHCO3/Na2CO3 coating buffer or 5 μg/ml FN in 50 mM Tris-HCl, pH 7.4 were used as the control coating materials. Human osteoblasts (HOB) cells in suspension was treated with 100 μg/ml RAD (GRADS; SEQ ID NO:9) or RGD (GRGDTP; SEQ ID NO:8) peptide for 20 min, the cells (3×10^4/well) were seeded into the wells, previously washed with 50 mM Tris-HCl, pH 7.4, and allowed to settle for 30 min. Attached cells were washed once with PBS, pH 7.4, and then fixed with 3.7% paraformaldehyde, further permeabilized with 0.1% (v/v) Triton® X-100 detergent in PBS, and co-stained with May-Grunwald and Giemsa stains as described previously."}, "[2]": {"assay": "Binding of TG2 to heparin SEPHAROSE, elution with NaCl gradient", "conditions": "compared with wt TG2", "protocol": "HEK cells, transiently transfected with wild-type and mutant TG2 were washed twice with ice cold PBS, pH 7.4 and lysed by the addition of 150 μl of 20 mM Tris-HCl pH 7.4, 10 mM EGTA, 2 mM EDTA, 1 mM NaF and 1 mM Na3VO4. After clarification by centrifugation, lysates were mixed with 450 μl of 50 mM Tris-HCl, 1 mM EDTA, 1 mM DTT, pH 7.5 and applied to a 5 ml Heparin SEPHAROSE® column (GE Healthcare) equilibrated in 50 mM Tris-HCl, 1 mM EDTA, 1 mM DTT pH 7.5 (buffer) at a flow rate of 1 ml/min. For the analysis of GTP-bound TG2 (closed conformation), lysates were pre-incubated for 1 h at room temperature with 0.5 mM GTP in 50 mM Tris-HCl, 2 mM MgCl2, 1 mM EDTA, 1 mM DTT pH 7.5. For the analysis of inhibitor-reacted TG2 (open conformation), lysates were incubated with 0.5 mM of irreversible inhibitor R281 (Griffin et al., 2008) and 10 mM CaCl2. The column was washed with 25 ml of buffer and protein was eluted with a linear gradient of increasing NaCl concentration (0-1M) in buffer. Fractions were assayed for TG2 activity and analysed for the presence of TG2 antigen by SDS-PAGE and Western blotting using CUB7402."}, "[3]": {"system": "NIH 3T3 cells", "assay": "Detection of TG2 at cell surface (biotinylation), in ECM and in culture medium of transfected cells", "type": "cell-based, mouse", "conditions": "transfected NIH 3T3 cells, biotinylation and Western blot, vs wild-type TG2", "protocol": "Cell surface proteins were labelled by biotinylation as described previously (Wang et al., 2010). Briefly, cell monolayers were rinsed three times with ice-cold PBS pH 8.0 and labelled with 0.8 mM sulfo-NHS-LC-biotin dissolved in PBS pH 8.0 at 4° C. for 20 min. Cells were then washed with 50 mM Tris-HCl, pH 8.0 and lysed with 1% SDS at 4° C. in PBS pH8.0. Following denaturation at 95° C., cell lysates were clarified by centrifugation at 14,000×g at 20° C. and 200 μg of protein was incubated overnight at 4° C. with NEUTRAVIDIN® avidin protein-Agarose resin. After washing three times with PBS pH 8.0, the biotin-labelled proteins were dissolved in 2× Laemmli buffer separated by SDS-PAGE and subjected to Western blotting.\nFollowing transfection, cells were incubated for 24 h with 10% (v/v) serum, which was replaced with 1% (v/v) serum and TG2 expression was allowed to proceed for a further 48 h. Proteins from 1 ml of medium were precipitated by the addition of ice cold 20% (w/v) trichloroacetic acid (TCA) to a final concentration of 10% (w/v) Pelleted proteins were then washed once with ice cold 10% (w/v) TCA, ethanol-acetone (1:1) and acetone, and resuspended in 2× Laemmli buffer (Sigma-Aldrich, UK) and analysed by SDS-PAGE and Western blot analysis using monoclonal anti-TG2 antibody (Cub7402). The remaining cells were detached with 2 mM EDTA in PBS, pH 7.4 and the ECM was extracted with 0.1% (w/v) deoxycholate in PBS, pH 7.4. The residual deoxycholate-insoluble ECM proteins were dissolved in 2× Laemmli buffer for further analysis by SDS-PAGE and Western blotting using Cub7402."}, "[4]": {"system": "FN", "assay": "Measurement of TG2 binding to FN by ELISA (cell lysates)", "conditions": "lysates of transfected HEK293T/17 cells, normalised for expression", "protocol": "Microtitre 96 well plates were coated with 50 μl of 5 μg/ml FN in 50 mM Tris-HCl, pH 7.4 at 4° C. overnight. The wells were blocked for 30 min with 5% (w/v) fat-free milk in PBS, pH 7.4 and washed twice with PBS-TWEEN® detergent, pH 7.4 and once with PBS, pH 7.4. Aliquots (100 μl) of cell lysate containing 60 μg protein were added to the FN-coated wells and incubated for 1 h at 37° C. After washing three times with PBS, pH 7.4, wells were blocked with 100 μl 3% BSA in PBS, pH 7.4 (blocking buffer) for 30 min at room temperature and then incubated with 100 μl Cub7402 (1:1000 dilution in blocking buffer) for 2 h at 37° C. After washing three times with PBS, pH 7.4, the wells were incubated with 100 μl rabbit anti-mouse IgG-HRP conjugated antibody (1:1000 dilution in blocking buffer) for 2 h at 37° C. HRP was detected by the addition of 100 μl of o-phenylenediamine substrate solution (SigmaFast […]™ OPD, Sigma). Colour development was terminated by the addition of 50 μl of 2.5M H2SO4 and absorbance at 490 nm was measured. The amount of TG2/mutant TG2 binding to the FN was normalised between samples by using the densitometry values from Western blotting for the TG protein found in each of the cell lysates used. α-Tubulin was used to normalise for any differences in protein loading."}}, "data": [{"molecule": "GRGDTP [RGD peptide, synthetic RGD peptide from Calbiochem]", "values": [{"measurement": "block of cell attachment on the FN matrix", "setting": "[1]", "value": "around 50%"}]}, {"molecule": "B1", "values": [{"measurement": "binding to heparin SEPHAROSE (in words)", "setting": "[2]", "value": "comparable elution profile to the wt enzyme"}, {"measurement": "presence on the cell surface", "setting": "[3]", "value": "greater levels"}, {"measurement": "binding to FN compared to wild type TG2", "setting": "[4]", "value": "approximately 50%"}]}]}
